Results on one molecule are retold here after PMC9514091, “Discovery of the first PD-1 ligand encoded by a pathogen” (Frontiers in Immunology, 2022).

The test concerns the target T1, host PD-1-Fc fusion protein ( ('host'; the dolphin PD-1 of …).
T1 chain: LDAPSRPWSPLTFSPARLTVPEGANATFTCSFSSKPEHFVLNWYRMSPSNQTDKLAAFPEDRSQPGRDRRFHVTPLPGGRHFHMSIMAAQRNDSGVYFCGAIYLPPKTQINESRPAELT
In words: SPR; Biacore T200, 25°C; PD-1-Fc amine-coupled to a CM4 chip (acetate buffer pH 6.5); De2-Fc or PD-L1-Fc as analytes at 0-400 nM in PBS with 0.05% Tween, 30 µL/min; 1:1 Langmuir model. The following applies: both partners purified.

B1: host PD-L1-Fc fusion protein (Fc fusion)
chain: FTITVPKDLYVVEYGSNVTLECRFPVDKQLNLLALVVYWEMEDKKIIQFVNGEEDLNVQHSSYNQRALLLKNQLPLGKAALQITDVKLQDAGIYCCLISYGGADYKRITLKVNASYRKINQTISVDPVTSEHELMCQAEGYPEAEVIWTSSDHRVLSGKTTITSSKREEKLFNVTSTLRINTTANEIFYCIFRRLGHEENSTAELV
Regarding B1, the affinity, expressed as Kd, was 6.2 nM. That is a single-digit nanomolar value.
